Data: PMC9482650, “Quantitative fragmentomics allow affinity mapping of interactomes” (Nature Communications, 2022)

Tests used:
Experiment in all cases: holdup assay
Design in all cases: key: below the threshold = too weak to quantify, mostly under pKd 3.1 to 4
Settings in all cases: plain residues with an end cap or a label only (N-terminal biotin on a linker: ado-ado)
DLG5_1, Q8TDM6 = target: DLG5_1, Q8TDM6
MAGI1_2, Q96QZ7 = target: MAGI1_2, Q96QZ7
GRID2IP_2, A4D2P6 = target: GRID2IP_2, A4D2P6
Chain of GRID2IP_2, A4D2P6 (A4D2P6 272-370): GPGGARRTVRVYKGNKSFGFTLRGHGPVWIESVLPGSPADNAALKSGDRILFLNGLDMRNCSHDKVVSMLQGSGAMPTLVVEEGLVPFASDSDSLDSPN

PARD3_3, Q8TEW0 = target: PARD3_3, Q8TEW0
Chain of PARD3_3, Q8TEW0 (Q8TEW0 582-685): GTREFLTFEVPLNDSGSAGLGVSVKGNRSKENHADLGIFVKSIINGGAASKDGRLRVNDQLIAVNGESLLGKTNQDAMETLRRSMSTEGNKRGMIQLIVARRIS

CARD11, Q9BXL7 = target: T1, CARD11, Q9BXL7
T1 sequence (Q9BXL7 662-765, limits assumed, looked up): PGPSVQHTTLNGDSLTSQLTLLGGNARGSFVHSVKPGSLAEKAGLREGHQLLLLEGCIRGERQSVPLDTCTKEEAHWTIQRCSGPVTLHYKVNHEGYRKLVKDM

LNX1_3, Q8TBB1 = target: LNX1_3, Q8TBB1
Chain of LNX1_3, Q8TBB1 (Q8TBB1 500-596): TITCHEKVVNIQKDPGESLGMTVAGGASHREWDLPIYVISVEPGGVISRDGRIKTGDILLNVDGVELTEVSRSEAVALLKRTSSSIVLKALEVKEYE

HTRA4, P83105 = target: T2, HTRA4, P83105
T2 sequence (P83105 378-476, limits assumed, looked up): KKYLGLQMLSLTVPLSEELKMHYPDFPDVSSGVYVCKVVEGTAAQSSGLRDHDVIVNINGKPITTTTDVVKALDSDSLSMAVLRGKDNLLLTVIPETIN

LNX2_2, Q8N448 = target: T3, LNX2_2, Q8N448
T3 sequence (Q8N448 334-432, limits assumed, looked up): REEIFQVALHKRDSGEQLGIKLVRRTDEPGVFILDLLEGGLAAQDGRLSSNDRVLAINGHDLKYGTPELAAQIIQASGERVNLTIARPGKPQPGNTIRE

GORASP1, Q9BQQ3 = target: GORASP1, Q9BQQ3
Chain of GORASP1, Q9BQQ3 (Q9BQQ3 1-208): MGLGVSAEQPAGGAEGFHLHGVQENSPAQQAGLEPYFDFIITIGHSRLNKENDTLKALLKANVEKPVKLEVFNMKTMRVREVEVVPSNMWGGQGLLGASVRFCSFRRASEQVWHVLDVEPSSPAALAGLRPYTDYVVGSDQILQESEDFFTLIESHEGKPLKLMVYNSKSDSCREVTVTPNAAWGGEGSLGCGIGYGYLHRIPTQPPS

DVL3, Q92997 = target: T4, DVL3, Q92997
T4 sequence (Q92997 244-331, limits assumed, looked up): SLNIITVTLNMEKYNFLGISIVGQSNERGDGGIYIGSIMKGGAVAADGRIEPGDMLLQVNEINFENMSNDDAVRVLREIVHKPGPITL

PDZD2_2, O15018 = target: T5, PDZD2_2, O15018
T5 sequence (O15018 329-429, limits assumed, looked up): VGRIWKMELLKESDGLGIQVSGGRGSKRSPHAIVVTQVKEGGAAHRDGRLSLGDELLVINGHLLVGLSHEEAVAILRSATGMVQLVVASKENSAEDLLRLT

GRIP1_4, Q9Y3R0 = target: T6, GRIP1_4, Q9Y3R0
T6 sequence (Q9Y3R0 467-571, limits assumed, looked up): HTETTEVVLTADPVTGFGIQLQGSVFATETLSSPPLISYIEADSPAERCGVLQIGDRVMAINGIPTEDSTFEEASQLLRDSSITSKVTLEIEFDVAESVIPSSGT

RAPGEF6, Q8TEU7 = target: T7, RAPGEF6, Q8TEU7
T7 sequence (Q8TEU7 525-625, limits assumed, looked up): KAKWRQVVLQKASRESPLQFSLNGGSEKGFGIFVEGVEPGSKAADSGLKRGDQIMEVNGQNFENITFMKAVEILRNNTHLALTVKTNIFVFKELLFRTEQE

NOS1, P29475 = target: NOS1, P29475
Chain of NOS1, P29475 (P29475 9-101): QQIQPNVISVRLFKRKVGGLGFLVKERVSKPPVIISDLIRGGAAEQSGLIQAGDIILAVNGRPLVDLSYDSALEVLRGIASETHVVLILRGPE

GRIP2_3, Q9C0E4 = target: GRIP2_3, Q9C0E4
Chain of GRIP2_3, Q9C0E4 (Q9C0E4 238-339): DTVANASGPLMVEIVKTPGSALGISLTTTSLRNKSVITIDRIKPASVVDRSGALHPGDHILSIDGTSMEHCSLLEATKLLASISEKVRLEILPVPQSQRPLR

PTPN13_1, Q12923 = target: T8, PTPN13_1, Q12923
T8 sequence (Q12923 1088-1188, limits assumed, looked up): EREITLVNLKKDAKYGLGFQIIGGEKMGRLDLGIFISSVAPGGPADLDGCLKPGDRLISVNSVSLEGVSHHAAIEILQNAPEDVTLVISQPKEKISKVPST

LIMK2, P53671 = target: LIMK2, P53671
Chain of LIMK2, P53671 (P53671 143-248): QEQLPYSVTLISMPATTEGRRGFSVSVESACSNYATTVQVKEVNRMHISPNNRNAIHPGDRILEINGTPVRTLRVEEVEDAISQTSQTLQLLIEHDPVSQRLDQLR

LNX2_3, Q8N448 = target: T9, LNX2_3, Q8N448
T9 sequence (Q8N448 463-564, limits assumed, looked up): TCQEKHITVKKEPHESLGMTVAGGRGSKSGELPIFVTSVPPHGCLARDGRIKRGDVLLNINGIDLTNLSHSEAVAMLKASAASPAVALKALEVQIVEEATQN

Inadl_3, Q8NI35 = target: Inadl_3, Q8NI35
Chain of Inadl_3, Q8NI35 (Q8NI35 359-469): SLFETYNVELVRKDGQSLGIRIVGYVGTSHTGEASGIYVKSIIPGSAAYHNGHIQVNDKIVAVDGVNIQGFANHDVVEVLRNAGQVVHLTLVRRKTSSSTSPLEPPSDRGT

MAGI2_5, Q86UL8 = target: MAGI2_5, Q86UL8
Chain of MAGI2_5, Q86UL8 (Q86UL8 915-1017): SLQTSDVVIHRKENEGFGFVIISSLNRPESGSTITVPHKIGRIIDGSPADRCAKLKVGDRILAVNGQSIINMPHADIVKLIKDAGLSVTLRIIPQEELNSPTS

NHERF4_2, Q86UT5 = target: NHERF4_2, Q86UT5
Chain of NHERF4_2, Q86UT5 (Q86UT5 220-308): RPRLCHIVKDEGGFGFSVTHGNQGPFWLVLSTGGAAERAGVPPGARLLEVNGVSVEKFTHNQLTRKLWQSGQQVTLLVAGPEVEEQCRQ

GRIP2_6, Q9C0E4 = target: GRIP2_6, Q9C0E4
Chain of GRIP2_6, Q9C0E4 (Q9C0E4 648-740): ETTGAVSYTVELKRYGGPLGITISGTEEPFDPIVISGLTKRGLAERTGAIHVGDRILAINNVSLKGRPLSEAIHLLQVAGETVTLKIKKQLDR

ARHGEF11, O15085 = target: T10, ARHGEF11, O15085
T10 sequence (O15085 42-136, limits assumed, looked up): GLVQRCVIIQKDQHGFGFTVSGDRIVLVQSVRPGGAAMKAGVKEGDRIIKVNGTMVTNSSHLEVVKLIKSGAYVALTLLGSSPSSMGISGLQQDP

PDZRN3_1, Q9UPQ7 = target: T11, PDZRN3_1, Q9UPQ7
T11 sequence (Q9UPQ7 244-349, limits assumed, looked up): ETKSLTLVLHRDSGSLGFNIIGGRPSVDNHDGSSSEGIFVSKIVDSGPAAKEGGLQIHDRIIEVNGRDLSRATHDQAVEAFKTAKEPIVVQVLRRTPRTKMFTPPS

FRMPD1, Q5SYB0 = target: T12, FRMPD1, Q5SYB0
T12 sequence (Q5SYB0 52-145, limits assumed, looked up): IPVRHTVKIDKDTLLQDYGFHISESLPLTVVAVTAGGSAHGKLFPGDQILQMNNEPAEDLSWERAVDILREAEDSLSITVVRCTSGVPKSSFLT

SNX27, Q96L92 = target: SNX27, Q96L92

Chain of MAGI1_2, Q96QZ7 (Q96QZ7 456-580): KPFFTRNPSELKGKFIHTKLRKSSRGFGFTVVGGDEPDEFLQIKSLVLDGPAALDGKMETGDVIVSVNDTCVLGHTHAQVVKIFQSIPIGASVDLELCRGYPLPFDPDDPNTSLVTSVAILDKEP
Chain of DLG5_1, Q8TDM6 (Q8TDM6 617-713): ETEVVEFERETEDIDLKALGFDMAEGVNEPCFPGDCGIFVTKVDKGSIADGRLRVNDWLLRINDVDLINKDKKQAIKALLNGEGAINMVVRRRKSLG

Row | Binder | pKd (DLG5_1, Q8TDM6) | pKd (MAGI1_2, Q96QZ7) | pKd (GRID2IP_2, A4D2P6) | pKd (PARD3_3, Q8TEW0) | pKd (CARD11, Q9BXL7) | pKd (LNX1_3, Q8TBB1) | pKd (HTRA4, P83105) | pKd (LNX2_2, Q8N448) | pKd (GORASP1, Q9BQQ3) | pKd (DVL3, Q92997) | pKd (PDZD2_2, O15018) | pKd (GRIP1_4, Q9Y3R0) | pKd (RAPGEF6, Q8TEU7) | pKd (NOS1, P29475) | pKd (GRIP2_3, Q9C0E4) | pKd (PTPN13_1, Q12923) | pKd (LIMK2, P53671) | pKd (LNX2_3, Q8N448) | pKd (Inadl_3, Q8NI35) | pKd (MAGI2_5, Q86UL8) | other results
1 | TNSRHGETTV [FZD2, Q14332] | 3.48 | 4.2 | 3.53 | below the threshold | below the threshold | below the threshold | below the threshold | 4.83 | 3.88 | below the threshold | 4.18 | below the threshold | below the threshold | 3.79 | below the threshold | below the threshold | below the threshold | below the threshold | 3.51 | 3.6 | pKd (NHERF4_2, Q86UT5): below the threshold; pKd (GRIP2_6, Q9C0E4): below the threshold; pKd (ARHGEF11, O15085): 4.07; pKd (PDZRN3_1, Q9UPQ7): 3.99; pKd (FRMPD1, Q5SYB0): below the threshold; pKd (SNX27, Q96L92): 5.64
2 | ARESQKVSHV [FAM110B, Q8TC76] | below the threshold | 4.09 | 4.66 | below the threshold | below the threshold | below the threshold | 4.1 | 4 | 3.8 | below the threshold | 5.17 | below the threshold | below the threshold | 3.55 | below the threshold | below the threshold | below the threshold | below the threshold | below the threshold | 3.66 | pKd (NHERF4_2, Q86UT5): below the threshold; pKd (GRIP2_6, Q9C0E4): below the threshold; pKd (ARHGEF11, O15085): 4.19; pKd (PDZRN3_1, Q9UPQ7): below the threshold; pKd (FRMPD1, Q5SYB0): below the threshold; pKd (SNX27, Q96L92): 4.42

More lines, main results first:

Row | pKd (DLG5_1, Q8TDM6) | pKd (MAGI1_2, Q96QZ7) | pKd (GRID2IP_2, A4D2P6) | pKd (PARD3_3, Q8TEW0) | pKd (CARD11, Q9BXL7) | pKd (LNX1_3, Q8TBB1) | pKd (HTRA4, P83105) | pKd (LNX2_2, Q8N448) | pKd (GORASP1, Q9BQQ3) | pKd (DVL3, Q92997) | pKd (PDZD2_2, O15018) | pKd (GRIP1_4, Q9Y3R0) | pKd (RAPGEF6, Q8TEU7) | pKd (NOS1, P29475) | pKd (GRIP2_3, Q9C0E4) | pKd (PTPN13_1, Q12923) | pKd (LIMK2, P53671) | pKd (LNX2_3, Q8N448) | pKd (Inadl_3, Q8NI35) | pKd (MAGI2_5, Q86UL8) | Binder | other results
3 | below the threshold | below the threshold | 4.06 | below the threshold | below the threshold | below the threshold | below the threshold | 4.39 | below the threshold | below the threshold | 4.87 | below the threshold | below the threshold | 3.86 | below the threshold | below the threshold | below the threshold | below the threshold | below the threshold | 4.06 | LESTTVGTSV [KARS1, Q15046] | pKd (NHERF4_2, Q86UT5): below the threshold; pKd (GRIP2_6, Q9C0E4): below the threshold; pKd (ARHGEF11, O15085): 4.04; pKd (PDZRN3_1, Q9UPQ7): 4.24; pKd (FRMPD1, Q5SYB0): below the threshold; pKd (SNX27, Q96L92): 4.45
4 | below the threshold | 5.08 | 4.28 | below the threshold | below the threshold | below the threshold | below the threshold | below the threshold | below the threshold | below the threshold | 4.51 | below the threshold | below the threshold | 4.07 | below the threshold | below the threshold | below the threshold | below the threshold | below the threshold | 3.99 | STKRKLASAV [NCF1, P14598] | pKd (NHERF4_2, Q86UT5): below the threshold; pKd (GRIP2_6, Q9C0E4): below the threshold; pKd (ARHGEF11, O15085): 3.74; pKd (PDZRN3_1, Q9UPQ7): below the threshold; pKd (FRMPD1, Q5SYB0): below the threshold; pKd (SNX27, Q96L92): below the threshold
